Values of other authors, collected in paper PMC3045798.

Target: Cys25 (UniProt position 158, GSCGSCWAFSA)

For “Papain (Carica papaya (not stated in the article))”, the pKa is given as “around 2.5 to 3.5”.
